Assay results as given in patent publication US20250092124A1 (YUNNAN BAIYAO GROUP, published 2025).

Experiments:
[1] = target: T1, GDF15-HIS (ACROBiosystems, CAT #: GD5-H5149) (human, UniProt Q99988 197-308); experiment: ELISA, GDF15-HIS coated
T1 construct: Bought protein; also called GDF15 (ACROBiosystems, GD5-H5149); human GDF15; not shown: His tag
T1 sequence (looked up): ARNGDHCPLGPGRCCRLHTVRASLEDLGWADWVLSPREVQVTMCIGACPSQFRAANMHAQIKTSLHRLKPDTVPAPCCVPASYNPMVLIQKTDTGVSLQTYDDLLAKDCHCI
Protocol: The experiment was performed as detailed in Example 2, except that the coating protein was GDF15-HIS (ACROBiosystems, CAT #: GD5-H5149), and the antibodies to be tested (the humanized antibodies), negative control antibody (hIgG1), positive control antibodies Ponsegromab (Pfizer; Drug Bank: D11909) and AV380-hlgG1 (the heavy chain and light chain constant regions of AV380-mIgG1 were replaced with the constant regions of human IgG, i.e., SEQ ID NO. 5 and SEQ ID NO. 6) were added to each well of the coated plate.

[2] = target: T1, GDF15-HIS (ACROBiosystems, CAT #: …); experiment: ELISA in stability test, antibody after pH 3.6 for 2-4 h; coated antigen not named
Protocol: An appropriate amount of each antibody was taken and adjusted to 5 mg/mL in storage buffer adjusted to pH 3.6 using an ultrafiltration tube. The antibodies were placed at room temperature for 2-4 hours, then protein aggregation was detected using SEC-HPLC, and protein binding activity change was detected by ELISA.

[3] = target: T2, GDF3 (R&D, 5754-G3-010) (UniProt Q9NR23 251-364); experiment: ELISA, GDF3 coated at 1 µg/ml, HRP-anti-human IgG
T2 sequence (looked up): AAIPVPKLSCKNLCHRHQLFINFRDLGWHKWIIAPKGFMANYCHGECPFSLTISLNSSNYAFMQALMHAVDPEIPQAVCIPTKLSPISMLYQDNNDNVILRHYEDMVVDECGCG
Protocol: (§1) GDF15 (ACROBiosystems, GDS-HS149), GDF1 (R&D, 6937-GD-010), and GDF3 (R&D, 5754-G3-010) proteins were dissolved in PBS at a concentration of 1 μg/ml and were used to coat ELISA 96-well plate. On the next day, the 96-well plate was blocked with 2% BSA in PBS for 1 hour. After removing the blocking solution, GDF15 antibody 53E5 (hz), control antibody Ponsegromab and irrelevant hIgG1 were added at 4 μg/ml. After incubation at room temperature for 1 hour, the plate was washed, and then HRP-anti-human IgG was added. After incubation at room temperature for 1 hour, the HRP enzyme activity signal (OD450) was detected. The OD450 value is the relative signal of the antibody binding amount.

[4] = target: T1, GDF15-HIS (ACROBiosystems, CAT #: …); experiment: cell-based or functional assay
[5] = target: T1, GDF15-HIS (ACROBiosystems, CAT #: …); experiment: BLI (ForteBio Octet), antibody immobilised, GDF15 200-6.25 nM
[6] = target: T1, GDF15-HIS (ACROBiosystems, CAT #: …); experiment: ELISA on human GDF15, antibody after 2 weeks at 37 °C in PBS; PBS, 37 C for 2 weeks (not plasma)
Protocol: (§2) […] of the antibodies to be tested (final concentration 1 mg/ml) were added to 200 μl of plasma and PBS, respectively, tightly sealed and placed at 37° C. for 2 weeks. The change of protein binding activity was detected by ELISA.

[7] = target: T3, GDF1 (R&D, 6937-GD-010) (UniProt P27539 254-372); experiment: ELISA, GDF1 coated at 1 µg/ml, HRP-anti-human IgG
T3 sequence (looked up): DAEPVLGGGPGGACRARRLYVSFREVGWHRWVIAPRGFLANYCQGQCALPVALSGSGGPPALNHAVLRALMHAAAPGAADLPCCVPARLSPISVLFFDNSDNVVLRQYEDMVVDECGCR
Protocol: as §1

[8] = target: T1, GDF15-HIS (ACROBiosystems, CAT #: …); experiment: ELISA on human GDF15, antibody after 2 weeks at 37 °C in plasma
Protocol: as §2

[9] = target: T4, GDF15-mFC protein (human; mouse, UniProt Q99988 197-308); experiment: competitive ELISA, GFRAL-HIS coated (competitor), GDF15-mFc 0.3 µg/ml pre-incubated with antibody
T4 construct: extracellular domain;domain: IgG2a-FC; also called GDF15-mFc fusion protein
T4 sequence (looked up): T1 sequence (looked up)
Protocol: GFRAL-HIS protein (ACROBiosystems, GFA-H52H3) was dissolved in PBS at a concentration of […] and was used to coat ELISA 96-well plate one day before blocking the plate with 2% BSA in PBS. 53E5 (hz), and control antibodies Ponsegromab and AV380-hIgG1 were 3.16-fold diluted for 10 gradients with a starting concentration of 20 μg/ml. At the same time, GDF15-mFc protein was added at a final concentration of 0.3 μg/ml. After incubation at room temperature for 1 hour, the mixtures were added to 96-well plate coated with GFRAL-HIS. After incubated at room temperature for 1 hour, the plate was washed and then HRP-anti-mouse IgG was added to the plate. After incubation at room temperature for 1 hour, the HRP enzyme activity (OD450) was detected. The HRP enzyme activity represents the relative amount of GDF15-mFc protein bound to GFRAL. The OD450 values and antibody concentrations were plotted. The dose-effect curve was fitted using the log (agonist) vs. response-variable slope (four-parameter) Logistic model to calculate IC50.

[10] = target: T1, GDF15-HIS (ACROBiosystems, CAT #: …); experiment: ELISA in stability test, antibody before treatment; coated antigen not named; before treatment (unstressed antibody, 10 mg/mL)
[11] = target: T1, GDF15-HIS (ACROBiosystems, CAT #: …); experiment: ELISA in stability test, antibody after 40 °C for 2 weeks; coated antigen not named
Protocol: An appropriate amount of each antibody was taken and adjusted to 10 mg/mL, and was placed at 40° C. for 1 and 2 weeks. Protein aggregation was detected using SEC-HPLC, and protein binding activity change was detected by ELISA.

EC50 [1]: 0.0833 µg/mL
OD450.Max [1]: 1.05 OD450
EC50 [2]: 0.0699 µg/mL
binding result [3]: no binding (tested: 4 µg/ml)
EC50 (read off the curve) of GDF15-His for luciferase induction with 0.1 µg/ml antibody present [4]: ~0.02 µg/mL
Kd [5]: 0.293 nM
koff [5]: 0.000271 s⁻¹
kon [5]: 923000 M⁻¹ s⁻¹
EC50 [6]: 0.127 µg/mL
binding result [7]: no binding (tested: 4 µg/ml)
EC50 [8]: 0.0372 µg/mL
IC50 [9]: 0.253 µg/mL
EC50 [10]: 0.0588 µg/mL
EC50 [11]: 0.0573 µg/mL
B1: 53E5(hz) (antibody, human IgG1, kappa, V domains shown)
VH: QVQLQESGPGLVKPSETLSLTCTFSGFSLSTSGMGVGWIRQPPGKGLEWLAHILWDDVKRYNPALKSRLTISKDSSKSQISLKLSSVTAADTAVYYCVQMAWDWFAYWGQGTTVTVSS
VL: DIQMTQSPSSLSASVGDRVTITCKASQNVDTNVAWYQQKPGQSPKALIYSASYRSSGVPSRFSGSGSGTDFTLTISSLQPEDFATYYCQQYHSYPTFGQGTRLEIKR
notes: also called S3E5 (hz); humanized antibody 53E5
